Reference: the supplement of paper PMC10201428
± gives the standard deviation of the averaged measurements.

Key:
[1] = system: VchCAST RNA-guided transposition machinery (E. coli BL21(DE3) host, lacZ target); test: relative integration efficiency (T-LR orientation) vs wild-type transposon end (log2 (normalized fold change)); transposon end mutated: right end (5 bp flank + 75 bp right end); higher = more efficient transposition
In short: (§1)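 A T7-driven effector plasmid encoding a CRISPR array, tniQ-cas8-cas7-cas6 and tnsA-tnsB-tnsC was co-transformed into E. coli BL21(DE3) together with a pUC57 mini-transposon donor holding barcoded pools of 1549 left-end or 1849 right-end variants. Transformants were plated with 0.1 mM IPTG at 37°C for 18 h. Illumina sequencing of PCR-amplified input plasmids and genomic integration junctions gave barcode abundances, and relative integration efficiency is their output/input fold change, normalised to reference barcodes and log-transformed.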

[2] = system: VchCAST RNA-guided transposition machinery (E. coli BL21(DE3) host, lacZ target); test: relative integration efficiency (T-RL orientation) vs wild-type transposon end (log2 (normalized fold change)); transposon end mutated: right end (5 bp flank + 75 bp right end); higher = more efficient transposition
In short: as §1

Sequence | relative integration efficiency (log2) [1] | relative integration efficiency (log2) [2]
ACATTTGTTCATACAACCATAAAACGATAATTACACCCATAAATGGATAATTATCACACCCAATTTAACTATAACGCTCTGATCATAGTCAGACCAACATTGCTACGACCCGTATTCGCACCGACAC | -0.438 ± 0.41 | -2.14 ± 0.3
ACATTTGTTCATACAACCATAAAACGATAATTACACCCATAAATGGATCATTATCACACCCAATTTAACTATAACGCTCTGATCATAGTCAGACCAACATTGCTACGACCCGTATTCGCACCGACAC | -0.511 ± 0.011 | -2.16 ± 0.3
ACATTTGTTCATACAACCATAAAACGATAATTACACCCATAAATTCATAATTATCACACCCAATTTAACTATAACGCTCTGATCATAGTCAGACCAACATTGCTACGACCCGTATTCGCACCGACAC | -0.844 ± 0.015 | -3 ± 0.52
ACATTTGTTCATACAACCATAAAACGATAATTACACCCATAAATTCATCATTATCACACCCAATTTAACTATAACGCTCTGATCATAGTCAGACCAACATTGCTACGACCCGTATTCGCACCGACAC | -0.684 ± 0.17 | -2.49 ± 0.11
ACATTTGTTCATACAACCATAAAACGATAATTACACCCATAAATTGATAATTATCACACCCAATTTAACTATAACGCTCTGATCATAGTCAGACCAACATTGCTACGACCCGTATTCGCACCGACAC | 1.42 ± 0.13 | -0.611 ± 0.28
ACATTTGTTCATACAACCATAAAACGATAATTACACCCATAAATTGATCATTATCACACCCAATTTAACTATAACGCTCTGATCATAGTCAGACCAACATTGCTACGACCCGTATTCGCACCGACAC | -0.162 ± 0.59 | -2.19 ± 0.3
ACATTTGTTCATACAACCATAAAATGATAATTACACCCATAAATGGATAATTATCACACCCAATTTAACTATAACGCTCTGATCATAGTCAGACCAACATTGCTACGACCCGTATTCGCACCGACAC | -0.42 ± 0.41 | -1.57 ± 0.27
ACATTTGTTCATACAACCATAAAATGATAATTACACCCATAAATGGATAATTATCACCCCCAATTTAACTATAACGCTCTGATCATAGTCAGACCAACATTGCTACGACCCGTATTCGCACCGACAC | 0.23 ± 0.071 | -1 ± 0.35
ACATTTGTTCATACAACCATAAAATGATAATTACACCCATAAATGGATCATTATCACACCCAATTTAACTATAACGCTCTGATCATAGTCAGACCAACATTGCTACGACCCGTATTCGCACCGACAC | -0.503 ± 0.054 | -1.79 ± 0.18
ACATTTGTTCATACAACCATAAAATGATAATTACACCCATAAATGGATCATTATCACCCCCAATTTAACTATAACGCTCTGATCATAGTCAGACCAACATTGCTACGACCCGTATTCGCACCGACAC | -0.469 ± 0.18 | -1.84 ± 0.28
ACATTTGTTCATACAACCATAAAATGATAATTACACCCATAAATTCATAATTATCACACCCAATTTAACTATAACGCTCTGATCATAGTCAGACCAACATTGCTACGACCCGTATTCGCACCGACAC | -0.697 ± 0.075 | -2.52 ± 0.32
ACATTTGTTCATACAACCATAAAATGATAATTACACCCATAAATTCATAATTATCACCCCCAATTTAACTATAACGCTCTGATCATAGTCAGACCAACATTGCTACGACCCGTATTCGCACCGACAC | -0.0689 ± 0.64 | -1.62 ± 0.43
ACATTTGTTCATACAACCATAAAATGATAATTACACCCATAAATTCATCATTATCACACCCAATTTAACTATAACGCTCTGATCATAGTCAGACCAACATTGCTACGACCCGTATTCGCACCGACAC | -0.334 ± 0.16 | -2.35 ± 0.22
ACATTTGTTCATACAACCATAAAATGATAATTACACCCATAAATTCATCATTATCACCCCCAATTTAACTATAACGCTCTGATCATAGTCAGACCAACATTGCTACGACCCGTATTCGCACCGACAC | 0.174 ± 0.27 | -1.97 ± 0.36
ACATTTGTTCATACAACCATAAAATGATAATTACACCCATAAATTGATAATTATCACCCCCAATTTAACTATAACGCTCTGATCATAGTCAGACCAACATTGCTACGACCCGTATTCGCACCGACAC | 0.97 ± 0.12 | -0.912 ± 0.46
ACATTTGTTCATACAACCATAAAATGATAATTACACCCATAAATTGATCATTATCACACCCAATTTAACTATAACGCTCTGATCATAGTCAGACCAACATTGCTACGACCCGTATTCGCACCGACAC | 0.604 ± 0.17 | -1.45 ± 0.36
ACATTTGTTCATACAACCATAAAATGATAATTACACCCATAAATTGATCATTATCACCCCCAATTTAACTATAACGCTCTGATCATAGTCAGACCAACATTGCTACGACCCGTATTCGCACCGACAC | 0.514 ± 0.2 | -1.59 ± 0.39
ACATTTGTTCATACAACCATAAAATGATAATTACCACCCATAAATTGATAATTATCACACCCATTTAACTATAACGCTCTGATCATAGTCAGACCAACATTGCTACGACCCGTATTCGCACCGACAC | -0.231 ± 0.23 | -1.38 ± 0.23

Sequence | relative integration efficiency (log2) [1] | relative integration efficiency (log2) [2]
ACATTTGTTCATACAACCATAAAATGATAATTACCACCCATACATTGATAATTATCACACCCATTTAACTATAACGCTCTGATCATAGTCAGACCAACATTGCTACGACCCGTATTCGCACCGACAC | -2.29 ± 0.1 | -3.31 ± 0.39
ACATTTGTTCATACAACCATAAAATGATAATTACCACCCCTAAATTGATAATTATCACACCCATTTAACTATAACGCTCTGATCATAGTCAGACCAACATTGCTACGACCCGTATTCGCACCGACAC | -2.87 ± 0.85 | -4.21 ± 0.08
ACATTTGTTCATACAACCATAAAATGATAATTACCACCCCTACATTGATAATTATCACACCCATTTAACTATAACGCTCTGATCATAGTCAGACCAACATTGCTACGACCCGTATTCGCACCGACAC | -3.25 ± 0.45 | -4.944 ± 0.019
ACATTTGTTCATACAACCATAAAATGATAATTCACCCATAAATTGATAATTATCACACCCCAATTTAACTATAACGCTCTGATCATAGTCAGACCAACATTGCTACGACCCGTATTCGCACCGACAC | -0.502 ± 0.27 | -2.26 ± 0.18
ACATTTGTTCATACAACCATAAAATGATAATTCACCCATCAATTGATAATTATCACACCCCAATTTAACTATAACGCTCTGATCATAGTCAGACCAACATTGCTACGACCCGTATTCGCACCGACAC | -2.51 ± 0.15 | -4.48 ± 0.28
ACATTTGTTCATACAACCCTAAAATGATAATTACACCCATAAATGGATAATTATCACACCCAATTTAACTATAACGCTCTGATCATAGTCAGACCAACATTGCTACGACCCGTATTCGCACCGACAC | -2.78 ± 0.54 | -3.9 ± 0.37
ACATTTGTTCATACAACCCTAAAATGATAATTACACCCATAAATGGATAATTATCACCCCCAATTTAACTATAACGCTCTGATCATAGTCAGACCAACATTGCTACGACCCGTATTCGCACCGACAC | -2.74 ± 0.46 | -3.89 ± 0.38
ACATTTGTTCATACAACCCTAAAATGATAATTACACCCATAAATGGATCATTATCACACCCAATTTAACTATAACGCTCTGATCATAGTCAGACCAACATTGCTACGACCCGTATTCGCACCGACAC | -3.19 ± 0.38 | -5 ± 0.2
ACATTTGTTCATACAACCCTAAAATGATAATTACACCCATAAATGGATCATTATCACCCCCAATTTAACTATAACGCTCTGATCATAGTCAGACCAACATTGCTACGACCCGTATTCGCACCGACAC | -3.98 ± 0.81 | -4.59 ± 0.14
ACATTTGTTCATACAACCCTAAAATGATAATTACACCCATAAATTCATAATTATCACACCCAATTTAACTATAACGCTCTGATCATAGTCAGACCAACATTGCTACGACCCGTATTCGCACCGACAC | -2.644 ± 0.026 | -5.31 ± 0.95
ACATTTGTTCATACAACCCTAAAATGATAATTACACCCATAAATTCATCATTATCACACCCAATTTAACTATAACGCTCTGATCATAGTCAGACCAACATTGCTACGACCCGTATTCGCACCGACAC | -3.3 ± 0.36 | -5.84 ± 0.57
ACATTTGTTCATACAACCCTAAAATGATAATTACACCCATAAATTCATCATTATCACCCCCAATTTAACTATAACGCTCTGATCATAGTCAGACCAACATTGCTACGACCCGTATTCGCACCGACAC | -3.65 ± 0.85 | -5.29 ± 0.22
ACATTTGTTCATACAACCCTAAAATGATAATTACACCCATAAATTGATAATTATCACACCCAATTTAACTATAACGCTCTGATCATAGTCAGACCAACATTGCTACGACCCGTATTCGCACCGACAC | -1.03 ± 0.5 | -2.24 ± 0.22
ACATTTGTTCATACAACCCTAAAATGATAATTACACCCATAAATTGATAATTATCACCCCCAATTTAACTATAACGCTCTGATCATAGTCAGACCAACATTGCTACGACCCGTATTCGCACCGACAC | -0.953 ± 0.35 | -2.74 ± 0.42
ACATTTGTTCATACAACCCTAAAATGATAATTACACCCATAAATTGATCATTATCACACCCAATTTAACTATAACGCTCTGATCATAGTCAGACCAACATTGCTACGACCCGTATTCGCACCGACAC | -1.36 ± 0.72 | -3.41 ± 0.23
ACATTTGTTCATACAACCCTAAAATGATAATTACACCCATAAATTGATCATTATCACCCCCAATTTAACTATAACGCTCTGATCATAGTCAGACCAACATTGCTACGACCCGTATTCGCACCGACAC | -0.724 ± 0.35 | -2.63 ± 0.59
ACATTTGTTCATCCAACCATAAAATGATAATTACACCCATAAATGGATAATTATCACACCCAATTTAACTATAACGCTCTGATCATAGTCAGACCAACATTGCTACGACCCGTATTCGCACCGACAC | -0.431 ± 0.44 | -2.08 ± 0.37
